Article PMC7910438, “The TUTase URT1 connects decapping activators and prevents the accumulation of excessively deadenylated mRNAs to avoid siRNA biogenesis” (Nature Communications, 2021)

Biological target: T1, 6His-GST-URT1 (Arabidopsis thaliana, UniProt O64642 1-764)
T1 construct: URT1, Arabidopsis thaliana, AT2G45620, 764 amino acids; amplified from cDNA; Plasmids in Supplementary Data 7; expression and purification in Supplementary Methods; source: E. coli BL21 DE3, purified; not shown: 6His, N-terminal, kept; GST, N-terminal, kept
T1 sequence (looked up): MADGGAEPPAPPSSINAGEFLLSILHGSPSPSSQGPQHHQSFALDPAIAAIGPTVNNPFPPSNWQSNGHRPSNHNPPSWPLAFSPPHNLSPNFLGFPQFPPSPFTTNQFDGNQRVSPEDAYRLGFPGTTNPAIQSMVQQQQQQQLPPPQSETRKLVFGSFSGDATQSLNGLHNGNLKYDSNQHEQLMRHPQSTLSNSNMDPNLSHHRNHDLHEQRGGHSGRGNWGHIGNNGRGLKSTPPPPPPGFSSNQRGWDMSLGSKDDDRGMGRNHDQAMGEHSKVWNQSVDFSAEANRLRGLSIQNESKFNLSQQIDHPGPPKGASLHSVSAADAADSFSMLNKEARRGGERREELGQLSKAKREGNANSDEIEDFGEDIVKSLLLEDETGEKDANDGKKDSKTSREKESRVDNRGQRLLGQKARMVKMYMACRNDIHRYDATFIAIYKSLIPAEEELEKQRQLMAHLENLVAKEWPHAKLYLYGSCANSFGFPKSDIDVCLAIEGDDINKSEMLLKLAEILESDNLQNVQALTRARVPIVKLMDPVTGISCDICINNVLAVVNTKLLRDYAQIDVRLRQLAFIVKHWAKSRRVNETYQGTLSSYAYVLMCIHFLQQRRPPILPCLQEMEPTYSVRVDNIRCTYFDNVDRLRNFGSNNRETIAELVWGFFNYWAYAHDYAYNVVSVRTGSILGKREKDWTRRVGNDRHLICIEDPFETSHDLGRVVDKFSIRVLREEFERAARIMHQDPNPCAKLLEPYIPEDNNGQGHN
Experiment: pull-down; GST pull-down on glutathione sepharose; 10 pmol of each purified protein in 500 µl of 20 mM MOPS pH 7.2, 100 mM KCl, 15% glycerol, 0.1% Tween 20 with 100 ng/µl RNase A, 4 °C; SDS-PAGE, SYPRO Ruby
Details: both partners purified

binding result: binds
B1: 6His-MBP-DCP5 (natural protein, Arabidopsis thaliana, UniProt Q9C658 1-611, looked up)
chain: MAADNTGSKSSSAADSYVGSLISLTSKSEIRYEGILYNINTDESSIGLQNVRSFGTEGRKKDGPQVPPSDKVYEYILFRGTDIKDLQVKASPPVQPPASTINNDPAIIQSHYPSPMPTSGSLPSTASGSLPDISSHNGQPGQHGMGFQNAMPLYQPGGNLGSWGASPQPPMYWQGFYTPPPNGLPQLHQQSLIRPPHGLPMPNSLQQPLQYPNFNTPPPPTGSSSLQGSSLPEAPSSLFPFSTSSQMLAPSSLPFPGLPPVTLSSSLQSTLQSAPSPSLASEMAPPLLSNKAPITAPPTLPQDTNLLSFSLSTTRATEASTGLPLSNKPSVVTGPISPPQTTPLTSAPVAGVSSSISQDKPKPLLVTPGQLLQSGSSAVSLSPPSTNADKDVEVVQVSSSAGLEQSVPVTSEAQPPILPLPSSARPTQKPNGHSFPNHNGYRGRGRGRGRGAGRSHQVMKFTEDFDFTAMNEKFNKDEVWGHLGKSTTLDGDEDDDSPTVDEAELPKIEAKPVYNKDDFFDSLSSNTIDRESQNSRPRFSEQRKLDTETFGEFSRFRGGRGGRGGYGRNNGYSRGGYGGRGYGGYGGRGGGGGGYGYGGRGQGRGVSNRTT
notes: DECAPPING 5 (DCP5), Arabidopsis thaliana, AT1G26110; amplified from cDNA; source: E. coli BL21 DE3, purified; not shown: 6His, N-terminal, kept; MBP, N-terminal, kept
